In test [1] the target is T1, Bovine lung-derived ANP receptor (bovine).
T1 chain: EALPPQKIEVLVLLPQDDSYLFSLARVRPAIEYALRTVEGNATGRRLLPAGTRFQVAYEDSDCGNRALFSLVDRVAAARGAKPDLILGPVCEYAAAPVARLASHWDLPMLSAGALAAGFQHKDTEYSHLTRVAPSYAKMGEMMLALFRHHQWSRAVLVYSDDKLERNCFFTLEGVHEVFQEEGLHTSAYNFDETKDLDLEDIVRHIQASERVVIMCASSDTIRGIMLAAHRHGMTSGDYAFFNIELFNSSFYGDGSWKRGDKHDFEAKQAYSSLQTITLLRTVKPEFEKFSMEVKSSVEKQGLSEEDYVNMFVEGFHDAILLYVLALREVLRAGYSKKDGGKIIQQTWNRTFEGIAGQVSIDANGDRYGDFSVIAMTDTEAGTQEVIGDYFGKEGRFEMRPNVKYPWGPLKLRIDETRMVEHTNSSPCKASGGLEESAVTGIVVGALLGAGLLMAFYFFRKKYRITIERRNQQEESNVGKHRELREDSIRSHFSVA
Kind of test: displacement of 125I-rat ANP from bovine lung membrane fraction, filter binding.

Test [2] addresses T2, protein-farnesyltransferase derived from bovine brains (bovine, UniProt P29702 2-375; P49355 1-437). Kind of test: cell-based or functional assay.
For test [3], the target named is T2, protein-farnesyltransferase derived …. Kind of test: cell-based or functional assay. This is another data set of the same source.

Here are results for six molecules from patent US6872803 (Kyowa Kirin, dated 2005).

[ ]: non-standard residue; d: D form.

B1: Compound (i), H-Phe-Gly-Gly-D-Arg-Ile-Asp-Arg-Ile-NH2 (peptide)
peptide: H-FGG[dR]IDRI-NH2
SMILES: CC[C@H](C)[C@H](NC(=O)[C@H](CCCNC(=N)N)NC(=O)[C@H](CC(=O)O)NC(=O)[C@@H](NC(=O)[C@@H](CCCNC(=N)N)NC(=O)CNC(=O)CNC(=O)[C@@H](N)Cc1ccccc1)[C@@H](C)CC)C(N)=O
The term IC50 denotes the concentration that inhibits the measured activity by half. A high value points to weaker potency in that assay. Consider B1, for which the IC50 in test [1] came to 0.21 µM.

B2: Compound (f), H-Ser-Met-Gly-Leu-Pro-Cys-Ile-Phe-Met-OH (peptide)
peptide: H-SMGLPCIFM-OH
With B2, the “IC50 (µM), transfer of [3H]-farnesyl diphosphate to Ras protein (v-Ki-Ras p21)” value (“IC50 (µM), transfer” below) in test [2] is 21 µM.

B3: Compound (h), H-Ala-Phe-Gly-Gly-Arg-Ile-Asp-Arg-Ile-Gly-Ala-Ala-NH2 (peptide)
peptide: H-AFGGRIDRIGAA-NH2
Turning to B3, the IC50 in test [1] is 0.0025 µM.

B4: Compound (e), H-Ser-Ser-Gly-Cys-Val-Leu-Ser-OH (peptide)
peptide: H-SSGCVLS-OH
B4: in test [2], the “IC50 (µM), transfer” value is 10 µM.

B5: Compound (g), H-Phe-Gly-Gly-Arg-Ile-Asp-Arg-Ile-NH2 (peptide)
peptide: H-FGGRIDRI-NH2
Molecule B5 yielded an IC50 in test [1] of 0.0035 µM.

B6: Compound (d), H-Ser-Met-Gly-Leu-Pro-Cys-Val-Val-Met-OH (peptide)
peptide: H-SMGLPCVVM-OH
Consider B6, for which the “IC50 (µM), transfer” value in test [2] was 1.6 µM. The “IC50 (µM), intake of [3H]-farnesyl diphosphate by biotin-lamin-B peptide (SPA enzyme assay kit)” value in test [3] turned out to be 1.2 µM.
